Reference: the supplement of paper PMC10567573

B1: CAMK2A (parent)
chain: CIQQILEAVLHCHQMGVVHRDLKP
B2: INTS4 (parent)
chain: YSSGEFSSGRKWGDDAPKEEVDTG

Variants of: B1
Assay: protein stability index of a GFP-peptide fusion (GPS, HEK-293T) (PSI 1-6); higher = more stable
Details: c terminus: a fixed tail appended
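Further: lentivirally expressed fusions sorted by FACS into six bins by GFP to DsRed ratio, PSI derived from sequencing read proportions per bin multiplied by bin number.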

Protein stability index: each site, then its substitutions
P24: Q 1.86 | C 1.95 | M 3.07 | F 2.58 | R 2.44 | G 2.88 | W 1.82 | Y 3 | I 3.7 | K 2.31 | D 2.99 | S 2.12 | L 1.78
K23: W 3.83 | Y 3.71

Variants of: B2
Assay: as above
Details: c terminus: a fixed tail appended

Protein stability index: each site, then its substitutions
S7: A 1.91 | H 1.92 | N 3.3 | G 2.75 | V 2.27 | D 3.83 | C 2.32 | Q 2.69 | E 4.21 | M 2.17 | F 2.98 | I 1.96 | Y 2.52 | K 3.45 | T 3.02 | P 1.67 | L 2.43 | R 1.8
K11: I 1.78 | G 2.98 | H 2.45 | P 2.08 | R 1.97 | S 3.02 | M 2.62 | E 3.25 | Y 3.31 | D 2.73 | W 1.94 | C 1.93 | L 1.91 | V 2.39 | N 3.21 | A 2.7 | T 2.31 | F 1.9 | Q 2.83
A16: T 2.28 | H 1.92 | I 2.28 | N 2.09 | G 2.16 | Q 2.71 | D 2.95 | M 2.52 | E 2.99 | C 2.71 | S 2.63 | V 2.42 | Y 2.56 | P 2.32 | F 2.3 | K 2.19 | L 2.48 | W 2.01 | R 2.71
K18: A 3.05 | C 2.62
E5: V 1.32 | Q 2.14 | A 2.75 | H 2.16 | N 3.27 | G 2.78 | K 2.22 | Y 1.04 | L 2.11 | C 1.84 | T 3.55 | D 3.64 | I 1.97 | R 2.15 | M 2.68 | P 2.95 | F 1.76 | S 3.07
S8: F 2.48 | T 2.48 | G 3.83 | V 1.57 | H 2.25 | M 1.6 | D 3.79 | C 1.97 | Y 2.59 | A 2.75 | E 3.56 | Q 1.89 | P 3.25 | K 2.19 | R 2.24 | I 1.94 | L 3.21 | N 2.68
F6: V 4.99 | T 4.79 | K 4.65 | C 5.11 | A 4.88 | I 4.67 | M 4.69 | D 5.75 | L 4.24 | N 5.22 | Q 4.96 | S 5.16 | R 4.63 | H 4.96 | P 5.56 | G 4.57 | Y 4.13
R10: M 1.52 | F 1.74 | Y 2.41 | I 2.13 | C 2.47 | K 2.81 | N 2.63 | W 1.65 | E 3.65 | L 2 | A 2.35 | V 2.5 | H 2.85 | T 2.8 | Q 1.98 | S 3.19 | P 2.3 | G 2.93 | D 3.93
G4: M 3.75 | C 3.61 | A 3.56 | Q 3.92 | W 2.43 | Y 3.91 | S 4.02 | E 4.08 | D 4.57 | I 4.11 | L 3.33 | N 4.01 | T 3.61 | F 3.6 | R 2.22 | K 3.31 | H 4.42 | V 3.87 | P 3.11
D15: P 1.96 | L 2.04 | T 2.28 | E 3.12 | F 3.02 | V 1.78 | W 1.69 | A 1.78 | N 2.34 | I 1.11 | H 1.81 | G 2.07 | K 2.18 | R 1.92 | S 2.54 | C 2.5 | Y 2.01 | M 1.78 | Q 2.12
Y1: S 5.81 | N 5.22 | E 5.74 | K 5.62 | W 4.52 | G 5.47 | V 5.8 | D 5.8 | C 3.87 | H 5.51 | L 5.79 | I 5.55 | P 5.42 | M 5.39 | A 4.93 | T 5.12 | R 5.71 | Q 5.66
S2: H 1.48 | N 4.64 | D 5.77 | I 2.42 | V 1.59 | G 1.95 | M 3.97 | T 2.67 | E 5.4 | Y 4.92 | Q 2.48 | F 4.02 | P 2.31 | C 2.04 | R 5.05 | L 3.48 | K 5.2 | W 3.81 | A 2.28
W12: N 3.3 | K 2.94 | T 3.08 | Y 2.57 | E 3.84 | G 3.11 | Q 3.17 | M 2.85 | I 3.2 | F 2.96 | V 3.08 | A 3.22 | R 2.86 | S 4.44 | C 2.7 | H 3.29 | P 2.92 | L 3.24 | D 3.21
G13: L 2.35 | Y 2.81 | P 2.6 | Q 3.38 | D 2.5 | E 3.02 | M 2.45 | C 2.65 | F 2.65 | W 2.44 | I 2.48 | K 2.5 | V 2.47 | H 3.66 | A 2.65 | R 2.15 | S 2.94 | N 3.13 | T 2.5
G9: H 2.43 | P 2.27 | S 2.63 | F 2.48 | A 1.91 | C 1.75 | R 2.32 | V 3.12 | Y 2.44 | E 2.76 | D 3.6 | M 1.83 | T 2.3 | Q 2.35 | I 1.84 | L 2.49 | N 2.59 | K 1.28 | W 1.43
P17: F 2.45 | S 3.25 | Y 1.99 | M 2.39 | D 3.06 | A 2.84 | G 2.09 | V 2.74 | E 2.8 | H 1.47 | W 2.9 | N 2.87 | K 2.31 | I 2.44 | C 2.64 | T 2.96 | Q 2.35 | R 2.01 | L 2.57
D14: L 1.98 | K 1.71 | S 2.19 | V 2.01 | N 2.59 | Q 1.41 | E 2.32 | I 1.54 | M 1.94 | G 1.22 | P 2.04 | F 2.59 | Y 2.48 | H 2.73 | C 1.79 | A 2.54 | W 2.2 | R 2.02 | T 1.94
S3: K 4.51 | T 3.83 | H 4.43 | I 4.01 | L 4.59 | D 5.15 | Q 3.86 | R 4.47 | W 2.89 | G 3.5 | C 4.1 | N 4.08 | F 3.93 | Y 4.13 | P 4.1 | E 5.22 | M 3.91 | A 4.89 | V 4.77
